From paper PMC11277095 (International Journal of Molecular Sciences, 2024)

Target: the molecule itself
Experiment: native gel or EMSA; 10 µg purified protein mixed with hypotonic buffer, hyperosmotic resealing solution (10% v/v Pigpa) or loading buffer; Tris/glycine buffer pH 8.3, 100 V; Coomassie staining

B1: Human ornithine aminotransferase variant R217A (OAT-R217A) (enzyme, UniProt P04181 26-439, looked up)
chain: TSVATKKTVQGPPTSDDIFEREYKYGAHNYHPLPVALERGKGIYLWDVEGRKYFDFLSSYSAVNQGHCHPKIVNALKSQVDKLTLTSRAFYNNVLGEYEEYITKLFNYHKVLPMNTGVEAGETACKLARKWGYTVKGIQKYKAKIVFAAGNFWGRTLSAISSSTDPTSYDGFGPFMPGFDIIPYNDLPALEAALQDPNVAAFMVEPIQGEAGVVVPDPGYLMGVRELCTRHQVLFIADEIQTGLARTGRWLAVDYENVRPDIVLLGKALSGGLYPVSAVLCDDDIMLTIKPGEHGSTYGGNPLGCRVAIAALEVLEEENLAENADKLGIILRNELMKLPSDVVTAVRGKGLLNAIVIKETKDWDAWKVCLRLRDNGLLAKPTHGDIIRFAPPLVIKEDELRESIEIINKTILSF
modifications: PLP bound to Lys292 through a Schiff base linkage
notes: Human ornithine aminotransferase, mitochondrial; construct printed as 'pET43a Δ26-439 OAT-R217A', the mature form with Arg217 changed to alanine; also called dimeric hOAT; source: E. coli BL21, purified (DEAE HiPrep FF, Sephacryl S-100)
B1: binds.
